{
  "source": "paper PMC12103653",
  "about": "(2025)",
  "binders": {"B1": {"name": "LIF receptor LIFR (receptor)", "chain": "QKKGAPHDLKCVTNNLQVWNCSWKAPSGTGRGTDYEVCIENRSRSCYQLEKTSIKIPALSHGDYEITINSLHDFGSSTSKFTLNEQNVSLIPDTPEILNLSADFSTSTLYLKWNDRGSVFPHRSNVIWEIKVLRKESMELVKLVTHNTTLNGKDTLHHWSWASDMPLECAIHFVEIRCYIDNLHFSGLEEWSDWSPVKNISWIPDSQTKVFPQDKVILVGSDITFCCVSQEKVLSALIGHTNCPLIHLDGENVAIKIRNISVSASSGTNVVFTTEDNIFGTVIFAGYPPDTPQQLNCETHDLKEIICSWNPGRVTALVGPRATSYTLVESFSGKYVRLKRAEAPTNESYQLLFQMLPNQEIYNFTLNAHNPLGRSQSTILVNITEKVYPHTPTSFKVKDINSTAVKLSWHLPGNFAKINFLCEIEIKKSNSVQEQRNVTIKGVENSSYLVALDKLNPYTLYTFRIRCSTETFWKWSKWSNKKQHLTTEASPSKGPDTWREWSSDGKNLIIYWKPLPINEANGKILSYNVSCSSDEETQSLSEIPDPQHKAEIRLDKNDYIISVVAKNSVGSSPPSKIASMEIPNDDLKIEQVVGMGKGILLTWHYDPNMTCDYVIKWCNSSRSEPCLMDWRKVPSNSTETVIESDEFRPGIRYNFFLYGCRNQGYQLLRSMIGYIEELAPIVAPNFTVEDTSADSILVKWEDIPVEELRGFLRGYLFYFGKGERDTSKMRVLESGRSDIKVKNITDISQKTLRIADLQGKTSYHLVLRAYTDGGVGPEKSMYVVTKENS"}},
  "molecular_target": "Leukemia inhibitory factor (LIF), un-glycosylated recombinant protein (human, UniProt P15018 23-202)",
  "sequence (P15018 23-202)": "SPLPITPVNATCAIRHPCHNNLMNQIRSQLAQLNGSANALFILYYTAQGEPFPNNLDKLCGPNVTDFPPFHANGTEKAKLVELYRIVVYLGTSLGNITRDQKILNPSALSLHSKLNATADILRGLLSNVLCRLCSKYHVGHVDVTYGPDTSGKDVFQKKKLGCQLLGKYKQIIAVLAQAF",
  "experiment": "SPR",
  "data": [
    {"binder": "B1", "values": [
      {"measurement": "Kd", "result": 6.31, "unit": "µM"}
    ]}
  ]
}
